Assay results from publication PMC7267745, “Histidine-Rich Glycoprotein Inhibits High-Mobility Group Box-1-Mediated Pathways in Vascular Endothelial Cells through CLEC-1A” (iScience, 2020).

T1: Histidine-rich glycoprotein (HRG), purified from human plasma (human, UniProt P04196 19-525)
T1 chain: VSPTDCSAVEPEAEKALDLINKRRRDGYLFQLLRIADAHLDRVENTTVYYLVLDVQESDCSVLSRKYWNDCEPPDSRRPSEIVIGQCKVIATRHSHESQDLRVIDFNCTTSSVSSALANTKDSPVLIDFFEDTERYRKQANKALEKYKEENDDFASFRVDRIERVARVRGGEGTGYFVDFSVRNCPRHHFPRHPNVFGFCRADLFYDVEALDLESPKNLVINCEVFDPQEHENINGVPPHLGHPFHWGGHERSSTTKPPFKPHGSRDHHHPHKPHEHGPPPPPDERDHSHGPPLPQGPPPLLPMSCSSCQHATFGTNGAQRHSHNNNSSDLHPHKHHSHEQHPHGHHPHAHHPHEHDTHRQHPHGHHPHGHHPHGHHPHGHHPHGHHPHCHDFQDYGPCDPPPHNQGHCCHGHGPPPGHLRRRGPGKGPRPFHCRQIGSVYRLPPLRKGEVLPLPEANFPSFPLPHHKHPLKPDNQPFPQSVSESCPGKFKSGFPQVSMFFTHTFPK

T2: Histidine-rich glycoprotein (HRG), purified from human plasma (human, UniProt P04196 19-525)
T2 construct: histidine-rich glycoprotein, human, 75 kDa plasma protein; source: purified from human plasma
T2 sequence (looked up): T1 chain

B1: human recombinant exCLEC-1A protein (domain or fragment)
chain: QYYQLSNTGQDTISQMEERLGNTSQELQSLQVQNIKLAGSLQHVAEKLCRELYNKAGAHRCSPCTEQWKWHGDNCYQFYKDSKSWEDCKYFCLSENSTMLKINKQEDLEFAASQSYSEFFYSYWTGLLRPDSGKAWLWMDGTPFTSELFHIIIDVTSPRSRDCVAILNGMIFSKDCKELKRCVCERRAGMVKPESLHVPPETLGEGD
B2: extracellular domain of CLEC-1A-Fc (exCLEC-1A-Fc) fusion protein (Fc fusion, UniProt Q8NC01 74-280, looked up)
chain: B1 chain
notes: extracellular domain of CLEC-1A; Source, limits and the kind of Fc are told only in the Transparent Methods (Document S1), if at all

Columns and labels:
[1] = molecular target: T1, Histidine-rich glycoprotein (HRG), …; assay: SPR
[2] = molecular target: T2, Histidine-rich glycoprotein (HRG), …; assay: SPR; BIAcore; exCLEC-1A-Fc fusion protein immobilised on a CM5 sensor chip; HRG flowed over; conditions: both partners purified
[3] = molecular target: T2, Histidine-rich glycoprotein (HRG), …; assay: SPR; BIAcore; HRG purified from human plasma (5 μg/mL) immobilised on a CM5 chip; exCLEC-1A-Fc (3.125, 6.25, 12.5 or 25 μg/mL) or human recombinant exCLEC-1A flowed for 120 s; conditions: both partners purified

Binder | Kd [1] [nM] | Kd [2] [nM] | Kd [3] [nM]
B1 | 400 | – | –
B2 | – | 10 | 7
